Test results from paper PMC4338318.
One block for each substance: values may come before it.

What was measured:
FLAG-seipin-Myc (human) = FLAG-seipin-Myc (human) (UniProt Q96G97); assay: atomic force microscopy (AFM); complexes isolated by anti-Myc immunoaffinity from co-transfected tsA 201 cells and eluted; tapping mode in air; particle volumes and decorations
[1] = molecular target: Seipin-Myc (wild type) (human) (UniProt Q96G97); assay: atomic force microscopy (AFM); complexes isolated by sequential anti-FLAG and anti-Myc immunoaffinity from triply transfected tsA 201 cells; tapping mode in air

Substance: HA-lipin 1α (from UniProt Q14693 1-890) (enzyme)
- percent of seipin particles doubly decorated (FLAG-seipin-Myc (human)): 9%
- percent of seipin particles doubly decorated by AGPAT2 plus lipin 1 [1]: 10.1%

Substance: FLAG-seipin-Myc (from UniProt Q96G97 1-398) (natural protein)
- stoichiometry N (FLAG-seipin-Myc (human)): 12

- stoichiometry N [1]: 12
Substance: Seipin-Myc (wild type) (from UniProt Q96G97 1-398) (natural protein)

Substance: FLAG-AGPAT2 (from UniProt O15120 24-278) (enzyme)
- percent of seipin particles doubly decorated (FLAG-seipin-Myc (human)): 12.8%
- percent of seipin particles triply decorated (FLAG-seipin-Myc (human)): 1%
- percent of seipin particles doubly decorated by AGPAT2 plus lipin 1 [1]: 10.1%
